Amyloid nucleation score data for 131 substances are collected here from the supplement of paper PMC12042874.

± gives the uncertainty stated by the source.

The data set is described as follows: amyloid nucleation score (Sup35N fusion, yeast selection) (log enrichment); library NNK3; higher = more nucleation; inactive = no reads after selection. Put shortly:
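The nucleation score is a DiMSum log enrichment of output over input reads, centred on the mode score of non-aggregating sequences. Sequences under 100 input reads were excluded, and reads came from Illumina sequencing of plasmid inserts. Psi-negative yeast expressing Sup35N fused to peptides of 20 random codons were induced with 100 μM copper sulfate for 24 hours and grown 7 days at 30°C on medium lacking adenine and uracil. Random libraries had three technical output replicates.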
As for RWPEPFSWFRFDYQIRDVVF, the amyloid nucleation score entry is “inactive”.
RWSVLAVSCM: the amyloid nucleation score entry was “inactive”.
In turn, RWSVLILNPPISKKHPDDK yielded an amyloid nucleation score of 0.345 ± 0.69.
As to RWYAVLYHLV, the amyloid nucleation score entry is “inactive”.
With RYCIVLTDNVNTLHNLIIMV, the amyloid nucleation score entry is “inactive”.
As to RYFAMGFRNSCYL, the amyloid nucleation score was 2.02 ± 0.065.
On to RYGDWLHHS, for which the amyloid nucleation score entry was “inactive”.
RYGFCHYCYRVLDFDVDVRW displayed an amyloid nucleation score of 0.881 ± 0.14.
Consider RYGLVVIAVVSAVHDGDACS, for which the amyloid nucleation score entry was “inactive”.
With RYKVD, the amyloid nucleation score entry was “inactive”.
In the case of RYLDQLI, the amyloid nucleation score result was “inactive”.
To RYSEWPAD belongs “inactive”.
Take RYWHEASVVGFIWGKWVDVS: the amyloid nucleation score entry was “inactive”.
RYWWYHSYRNGSGSLESYGV: the amyloid nucleation score entry was “inactive”.
The entry for RYYDLVSGSWWIYFG is “inactive”; for SAACLIMCVLLSILVQIFGM it is “inactive”; for SACEMWATRHKNWRASGYNH it is “inactive”.
On to SAFKAKL, for which the amyloid nucleation score result is “inactive”.
For SAGACSV, the amyloid nucleation score entry is “inactive”.
For the substance SARRTVYLFQNSHRVHPFLF, the amyloid nucleation score entry is “inactive”.
With SASKKLTAFALVVFLRV, the amyloid nucleation score result is “inactive”.
SAWHIRVERIGVMYRVHCYD: the amyloid nucleation score stood at 0.747 ± 0.18.
As to SAWSTECYVMCSM, the amyloid nucleation score result is “inactive”.
To SAYTTLRDRRCSKGYNMILG belongs “inactive”.
The entry for SCAECDMRWHMGGCICFVLG is “inactive”.
With SCEDVVANVLLYCRISGHWG, the amyloid nucleation score entry is “inactive”.
To SCFCNVFVVDMMSLSMGDIL belongs 2.4 ± 0.05; to SCFCQILPFRV, “inactive”.
In the case of SCGKGRYWVLNAMINPICKQ, the amyloid nucleation score worked out at 1.14 ± 0.096.
The entry for SCGSDKSLFDDCIKPRSRHC is “inactive”.
For the substance SCIRVRRNATVAVVLDDMLK, the amyloid nucleation score entry was “inactive”.
In turn, SCLSNIVFFFPCQCRSMIFS gave an amyloid nucleation score of 1.99 ± 0.063.
SCLWGKRLMFWCE gave an amyloid nucleation score of -0.528 ± 0.77.
For the substance SCMCYGTLLVLLYISYVMVE, the amyloid nucleation score result is “inactive”.
The entry for SCQNRWYSSFHKLAETRSYW is “inactive”; for SCQSGMSLCLSDHRLA it is “inactive”.
Take SCRIFDPMEPTTLCENSWSL: the amyloid nucleation score entry was “inactive”.
On to SCRIMSRYGAQIWCDPTYQA, for which the amyloid nucleation score entry was “inactive”.
Take SCRLLNFIICIGWVWGFDVS: the amyloid nucleation score entry is “inactive”.
As for SCRNCDYLLCGNYHT, the amyloid nucleation score result is “inactive”.
In turn, SCSGW came in with an amyloid nucleation score of -0.351 ± 1.1.
For SCSNCVHISRTAILTGPRSA, the amyloid nucleation score entry was “inactive”.
Consider SCSSTDDWPGISSG, for which the amyloid nucleation score entry is “inactive”.
As to SCTVKLDCNAVDSVSMDDVD, the amyloid nucleation score result is “inactive”.
Regarding SCVARYDRAAHRRVIETRLG, the amyloid nucleation score result was “inactive”.
The entry for SCVGVRVLCSAVV is “inactive”.
On to SDGSCRVRAFYSYKGALVSF, for which the amyloid nucleation score result was “inactive”.
For SDIAVLRRLNCMKVKLKLWH, the amyloid nucleation score result was “inactive”.
Turning to SDKRQLRDR, the amyloid nucleation score result is “inactive”.
In the case of SDLTMIRVPIFITLRPPHSS, the amyloid nucleation score entry was “inactive”.
For SDQVGFQIEVFCVKS, the amyloid nucleation score entry was “inactive”.
The entry for SDRRLK is “inactive”.
Take SDRSA: the amyloid nucleation score entry was “inactive”.
With SDYENTRTNDNDHICVLSVG, the amyloid nucleation score result is “inactive”.
Regarding SDYHWYVRTSCGSFSYGHVN, the amyloid nucleation score result is “inactive”.
Turning to SEICF, the amyloid nucleation score entry was “inactive”.
The entry for SEKYATSKYCQVTFGVTLPS is “inactive”.
For the substance SEQVMRTRDSTRAKSGLNVI, the amyloid nucleation score was 0.569 ± 0.22.
Consider SERPDFMDYEEMLGYAVKWR, for which the amyloid nucleation score result was “inactive”.
Regarding SERQTSLRHLGLRHLFK, the amyloid nucleation score came out at 1.22 ± 0.16.
SFDFHRVMIPRDRPDYHPSM: the amyloid nucleation score result is “inactive”.
As to SFFARGVFFAIRQARQGNSG, the amyloid nucleation score entry is “inactive”.
The entry for SFFLIRG is “inactive”.
SFGLF: the amyloid nucleation score result was “inactive”.
As to SFISVCNAVLHIR, the amyloid nucleation score entry is “inactive”.
In the case of SFITTCIYRNVSVFCDHSAE, the amyloid nucleation score result is “inactive”.
Regarding SFLFA, the amyloid nucleation score entry is “inactive”.
To SFLPNKYLL belongs “inactive”; to SFMRCFNIVWYTSILLRYTW, “inactive”.
For SFMVIIYAVERVIVGITGKS, the amyloid nucleation score came out at 0.611 ± 0.16.
Consider SFNFSPCVYTCVRMCIWGYF, for which the amyloid nucleation score result was “inactive”.
To SFNGMSCLRNNLRWNFNRNA belongs “inactive”.
To SFNHFQCLFISPLTRCARGV belongs 1.51 ± 0.13; to SFNSQSSRRVDNQRWVNLNF, 0.886 ± 0.11.
The entry for SFSCVHDDCRKLLQLRLDST is “inactive”; for SFSSRRHYNLLPFRWFFRRN it is “inactive”; for SFSWLTFPRGSDNFQDWHCI it is 0.56 ± 0.31.
SFSYNAQLYTQVVMSRYKMR yielded an amyloid nucleation score of -0.193 ± 0.48.
SFTYTRQSGSNLEAVGTFPH: the amyloid nucleation score was -0.373 ± 0.69.
On to SFVQRVSLLMSVSVFETASS, for which the amyloid nucleation score result was “inactive”.
The entry for SFVSSMCVTGEKVEGSRPCC is “inactive”; for SFYYLVKLYSLSSSIRLFRS it is “inactive”; for SGAQARDV it is “inactive”.
Turning to SGCLFAYSWSGCTLVRYDVF, the amyloid nucleation score was -0.416 ± 0.45.
Regarding SGCRLLVVECPASCCWDITT, the amyloid nucleation score result was “inactive”.
With SGCVKLVVNTCLRYY, the amyloid nucleation score result was “inactive”.
Regarding SGDLMEGGEYF, the amyloid nucleation score entry is “inactive”.
As to SGFKG, the amyloid nucleation score result was “inactive”.
To SGGGIPGTLGSGDPSSPNTQ belongs “inactive”.
As to SGGYLYRSSLSTVNSEDAMV, the amyloid nucleation score entry is “inactive”.
The figure for SGISIVIPFPRGVQMT is -0.47 ± 1; for SGIVLESLLISRFFKGFHRD it is 0.926 ± 0.25.
SGLFWRTLEPLNSVDRFYG: the amyloid nucleation score result was “inactive”.
The entry for SGLSSRNSYTFVSKRVVGVR is “inactive”; for SGLWHRILCSGRPTGYTQWV it is “inactive”; for SGLYMCRISFSPLIVMIVYG it is 1.3 ± 0.096.
In the case of SGMKWYLRLYV, the amyloid nucleation score entry is “inactive”.
As to SGNDISCPATSIHFRVGVRS, the amyloid nucleation score result was “inactive”.
Take SGQSNDCVMDVWMDM: the amyloid nucleation score entry was “inactive”.
The entry for SGRSRWNAH is “inactive”; for SGSGWKICRNSHAGAVFYSR it is “inactive”.
For the substance SGSSVPSLYCVDYAVDG, the amyloid nucleation score entry was “inactive”.
SGSVNIHSWCGFNSWT: the amyloid nucleation score result is “inactive”.
To SGTHNKVSTRMFGWNFI belongs 0.584 ± 0.11; to SGTNLFRF, “inactive”; to SGTPVPAYSTSWQQNWVKQC, “inactive”.
Take SGYLYFFLRSVDCRFLTSSL: the amyloid nucleation score entry was “inactive”.
Take SHECHSFLHVLFNVACSWGG: the amyloid nucleation score result is “inactive”.
As to SHGLVIVRTKRPSNGFENGW, the amyloid nucleation score result is “inactive”.
In turn, SHPASVFGGKRMGCCSRPKG returned an amyloid nucleation score of -0.304 ± 1.1.
Take SHRNTKKFMEWIFLYFIPTM: the amyloid nucleation score is 0.064 ± 0.62.
For SHYSSWVSRDRWSNTEFGMV, the amyloid nucleation score entry was “inactive”.
Take SIADRMHFLWVGEGGTRDYA: the amyloid nucleation score entry was “inactive”.
Substance SICCMWMWMACAIKFQNTRR gave an amyloid nucleation score of -0.519 ± 1.9.
For SIEKAILCSCVVSMPIMRGG, the amyloid nucleation score was 2.3 ± 0.081.
With SIFCFDYWQDIGTFMPSAVK, the amyloid nucleation score entry is “inactive”.
Take SIFMWLRNRC: the amyloid nucleation score entry is “inactive”.
Substance SIFPRTCTKFFLGVTGFCFN displayed an amyloid nucleation score of -0.322 ± 0.8.
Turning to SIFSLLCVRLRGEVAPSRLM, the amyloid nucleation score entry is “inactive”.
For the substance SIGCIHARCAYEEFDMVVIC, the amyloid nucleation score result was “inactive”.
Take SIISMDKDRTLAHTDHQV: the amyloid nucleation score entry was “inactive”.
In the case of SIKSSISIFKYF, the amyloid nucleation score result was “inactive”.
Consider SILDWYVSVVRRGA, for which the amyloid nucleation score entry was “inactive”.
As to SILWSPIDEGLIIVSSVTFL, the amyloid nucleation score result was “inactive”.
The figure for SIMFVCQFGGGSRNSYGCLA is 2.24 ± 0.078.
SIMLFWVTGRLLRLSLLMLL: the amyloid nucleation score turned out to be 0.45 ± 0.21.
The entry for SIRDYSFIASSC is “inactive”; for SIRKHFPIRNMDELHSARN it is “inactive”.
Take SIRTWRVPRDCSAYFNGLSW: the amyloid nucleation score result is “inactive”.
SISCCGIILIKNQASMPWAS: the amyloid nucleation score came to 2.96 ± 0.079.
In the case of SISMQVNHPEY, the amyloid nucleation score entry is “inactive”.
